These results are taken from the supplement of paper PMC5998384.

For the data set, the system named is HeLa Kyoto. The data set can be described thus: melting temperature (median over replicates), in situ; higher = more thermally stable.
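Note: HeLa Kyoto cells synchronized by double thymidine or nocodazole block, proteins quantified by TMT10plex mass spectrometry, three independent biological replicates.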

FLNC registered a melting temperature (cell cycle stage: mitosis) of 55 °C.

Under “cell cycle stage: G1/S”, “MAEVPPGPSSLLPPPAPPAPAAVEPRCPFPAGAALACCSEDEEDDEEHEGGGSRSPAGGESATVAAKGHPCLRCPQPPQEQQQLNGLISPELRHLRAAASLKSKVLSVAEVAATTATPDGGPRATATKGAGVHSGERPPHSLSSNARTAVPSPVEAAAASDPAAARNGLAEGTEQEEEEEDEQVRLLSSSLTADCSLRSPSGREVEPGEDRTIRYVRYESELQMPDIMRLITKDLSEPYSIYTYRYFIHNWPQLCFLAMVGEECVGAIVCKLDMHKKMFRRGYIAMLAVDSKYRRNGIGTNLVKKAIYAMVEGDCDEVVLETEITNKSALKLYENLGFVRDKRLFRYYLNGVDALRLKLWLR [NAA30]” yielded a melting temperature of 51.9 °C.

Substance “MAGSDTAPFLSQADDPDDGPVPGTPGLPGSTGNPKSEEPEVPDQEGLQRITGLSPGRSALIVAVLCYINLLNYMDRFTVAGVLPDIEQFFNIGDSSSGLIQTVFISSYMVLAPVFGYLGDRYNRKYLMCGGIAFWSLVTLGSSFIPGEHFWLLLLTRGLVGVGEASYSTIAPTLIADLFVADQRSRMLSIFYFAIPVGSGLGYIAGSKVKDMAGDWHWALRVTPGLGVVAVLLLFLVVREPPRGAVERHSDLPPLNPTSWWADLRALARNPSFVLSSLGFTAVAFVTGSLALWAPAFLLRSRVVLGETPPCLPGDSCSSSDSLIFGLITCLTGVLGVGLGVEISRRLRHSNPRADPLVCATGLLGSAPFLFLSLACARGSIVATYIFIFIGETLLSMNWAIVADILLYVVIPTRRSTAEAFQIVLSHLLGDAGSPYLIGLISDRLRRNWPPSFLSEFRALQFSLMLCAFVGALGGAAFLGTAIFIEADRRRAQLHVQGLLHEAGSTDDRIVVPQRGRSTRVPVASVLI [SPNS1]” returned a melting temperature (cell cycle stage: mitosis) of 62 °C.

Take “MAHAHIQGGRRAKSRFVVCIMSGARSKLALFLCGCYVVALGAHTGEESVADHHEAEYYVAAVYEHPSILSLNPLALISRQEALELMNQNLDIYEQQVMTAAQKDVQIIVFPEDGIHGFNFTRTSIYPFLDFMPSPQVVRWNPCLEPHRFNDTEVLQRLSCMAIRGDMFLVANLGTKEPCHSSDPRCPKDGRYQFNTNVVFSNNGTLVDRYRKHNLYFEAAFDVPLKVDLITFDTPFAGRFGIFTCFDILFFDPAIRVLRDYKVKHVVYPTAWMNQLPLLAAIEIQKAFAVAFGINVLAANVHHPVLGMTGSGIHTPLESFWYHDMENPKSHLIIAQVAKNPVGLIGAENATGETDPSHSKFLKILSGDPYCEKDAQEVHCDEATKWNVNAPPTFHSEMMYDNFTLVPVWGKEGYLHVCSNGLCCYLLYERPTLSKELYALGVFDGLHTVHGTYYIQVCALVRCGGLGFDTCGQEITEATGIFEFHLWGNFSTSYIFPLFLTSGMTLEVPDQLGWENDHYFLRKSRLSSGLVTAALYGRLYERD [BTD]”: the melting temperature (cell cycle stage: mitosis) is 58 °C.

Take “MAMEGYWRFLALLGSALLVGFLSVIFALVWVLHYREGLGWDGSALEFNWHPVLMVTGFVFIQGIAIIVYRLPWTWKCSKLLMKSIHAGLNAVAAILAIISVVAVFENHNVNNIANMYSLHSWVGLIAVICYLLQLLSGFSVFLLPWAPLSLRAFLMPIHVYSGIVIFGTVIATALMGLTEKLIFSLRDPAYSTFPPEGVFVNTLGLLILVFGALIFWIVTRPQWKRPKEPNSTILHPNGGTEQGARGSMPAYSGNNMDKSDSELNSEVAARKRNLALDEAGQRSTM [CYBRD1]”: the melting temperature (cell cycle stage: mitosis) was found to be 53.6 °C.

The substance “MAPQRRAATKAPEGNGAAERRNRSSTKKDRAPREVQRLWQRPWLRTAGLGAGFVLTALLLWSSLGADDGVAEVLARRGEVVAGRFIEVPCSEDYDSHRRFEGCTPRKCGRGVTDVVITREEAERIRSVAEKGLSLGGSDGGASILDLHSGALSVGKHFVNLYRYFGDKIQNIFSEEDFRLYREVRQKVQLTIAEAFGISASSLHLTKPTFFSRINSTEARTAHDEYWHAHVDKVTYGSFDYTSLLYLSNYLEDFGGGRFMFMEEGANKTVEPRAGRVSFFTSGSENLHRVEKVHWGTRYAITIAFSCNPDHGIEDPAFP [OGFOD3]” came in with a melting temperature (cell cycle stage: mitosis) of 53.1 °C.

The substance “MARRRRRACIALFLVLLFAFGTLMGLRTLKAPDGLPALGPGLELAPFERRPEGAPAPAARAPAAPAAPPPPPPPPRTADPGGSPGPAPAEAEPAPVQSLRVYSDLHAFYYSWYGSPRREGHYIHWDHVMVPHWDPKISASYPRGRHSPPDDLGSSFYPELGPYSSRDPEVLREHMTQLKEAAIGVLVLSWYPPGMADDNGEPSDDLVPAILDTAHQYSIQVAFHIQPYKGRDDITVHDNIKYIIDTYGSHGAFYRYKNSMGKSLPLFYIYDSYLTSPEAWAHLLTPNGPHSIRNTPYDGVFIALLVEEGHTHDILAAGFDGMYTYFASNGFSFGSSHQNWKAVKNFCDANNLMFIPSVGPGYIDTSIRPWNNHNTRNRVNGKYYETALQAALTVRPEIVSITSFNEWHEGTQIEKAIPKKTPTRLYLDYLPHQPSLYLELTRRWAEHFIKEKEQWLM [MANEAL]” displayed a melting temperature (cell cycle stage: mitosis) of 54.1 °C.

In the case of “MASRAGPRAAGTDGSDFQHRERVAMHYQMSVTLKYEIKKLIYVHLVIWLLLVAKMSVGHLRLLSHDQVAMPYQWEYPYLLSILPSLLGLLSFPRNNISYLVLSMISMGLFSIAPLIYGSMEMFPAAQQLYRHGKAYRFLFGFSAVSIMYLVLVLAVQVHAWQLYYSKKLLDSWFTSTQEKKHK [JAGN1]”, the melting temperature (cell cycle stage: mitosis) is 54.8 °C.

“MATETVELHKLKLAELKQECLARGLETKGIKQDLIHRLQAYLEEHAEEEANEEDVLGDETEEEETKPIELPVKEEEPPEKTVDVAAEKKVVKITSEIPQTERMQKRAERFNVPVSLESKKAARAARFGISSVPTKGLSSDNKPMVNLDKLKERAQRFGLNVSSISRKSEDDEKLKKRKERFGIVTSSAGTGTTEDTEAKKRKRAERFGIA [SARNP]”: the melting temperature runs as follows: (cell cycle stage: G1/S) 57.9 °C; (cell cycle stage: mitosis) 54.3 °C.

With “MDEESLESALQTYRAQLQQVELALGAGLDSSEQADLRQLQGDLKELIELTEASLVSVRKSSLLAALDEERPGRQEDAEYQAFREAITEAVEAPAAARGSGSETVPKAEAGPESAAGGQEEEEGEDEEELSGTKVSAPYYSSWGTLEYHNAMVVGTEEAEDGSAGVRVLYLYPTHKSLKPCPFFLEGKCRFKENCRFSHGQVVSLDELRPFQDPDLSSLQAGSACLAKHQDGLWHAARITDVDNGYYTVKFDSLLLREAVVEGDGILPPLRTEATESDSDSDGTGDSSYARVVGSDAVDSAQSSALCPSLAVVGSDAVDSGTCSSAFAGWEVHTRGIGSRLLTKMGYEFGKGLGRHAEGRVEPIHAVVLPRGKSLDQCVETLQKQTRVGKAGTNKPPRCRGRGARPGGRPAPRNVFDFLNEKLQGQAPGALEAGAAPAGRRSKDMYHASKSAKRALSLRLFQTEEKIERTQRDIRSIQEALARNAGRHSVASAQLQEKLAGAQRQLGQLRAQEAGLQQEQRKADTHKKMTEF [ZGPAT]”, the melting temperature worked out at 47.5 °C (cell cycle stage: G1/S) and 49.3 °C (cell cycle stage: mitosis).

On to “MDHSHHMGMSYMDSNSTMQPSHHHPTTSASHSHGGGDSSMMMMPMTFYFGFKNVELLFSGLVINTAGEMAGAFVAVFLLAMFYEGLKIARESLLRKSQVSIRYNSMPVPGPNGTILMETHKTVGQQMLSFPHLLQTVLHIIQVVISYFLMLIFMTYNGYLCIAVAAGAGTGYFLFSWKKAVVVDITEHCH [SLC31A1]”, for which the melting temperature is 56.5 °C (cell cycle stage: G1/S) and 54.9 °C (cell cycle stage: mitosis).

As for “MEMSGLSFSEMEGCRNLLGLLDNDEIMALCDTVTNRLVQPQDRQDAVHAILAYSQSAEELLRRRKVHREVIFKYLATQGIVIPPATEKHNLIQHAKDYWQKQPQLKLKETPEPVTKTEDIHLFQQQVKEDKKAEKVDFRRLGEEFCHWFFGLLNSQNPFLGPPQDEWGPQHFWHDVKLRFYYNTSEQNVMDYHGAEIVSLRLLSLVKEEFLFLSPNLDSHGLKCASSPHGLVMVGVAGTVHRGNTCLGIFEQIFGLIRCPFVENTWKIKFINLKIMGESSLAPGTLPKPSVKFEQSDLEAFYNVITVCGTNEVRHNVKQASDSGTGDQV [C3ORF38]”, the melting temperature by setting is: (cell cycle stage: G1/S) 50.4 °C; (cell cycle stage: mitosis) 50.9 °C.

Regarding “MEPGTNSFRVEFPDFSSTILQKLNQQRQQGQLCDVSIVVQGHIFRAHKAVLAASSPYFCDQVLLKNSRRIVLPDVMNPRVFENILLSSYTGRLVMPAPEIVSYLTAASFLQMWHVVDKCTEVLEGNPTVLCQKLNHGSDHQSPSSSSYNGLVESFELGSGGHTDFPKAQELRDGENEEESTKDELSSQLTEHEYLPSNSSTEHDRLSTEMASQDGEEGASDSAEFHYTRPMYSKPSIMAHKRWIHVKPERLEQACEGMDVHATYDEHQVTESINTVQTEHTVQPSGVEEDFHIGEKKVEAEFDEQADESNYDEQVDFYGSSMEEFSGERSDGNLIGHRQEAALAAGYSENIEMVTGIKEEASHLGFSATDKLYPCQCGKSFTHKSQRDRHMSMHLGLRPYGCGVCGKKFKMKHHLVGHMKIHTGIKPYECNICAKRFMWRDSFHRHVTSCTKSYEAAKAEQNTTEAN [ZBTB43]”, the melting temperature (cell cycle stage: mitosis) was 55 °C.

With “MGAKQSGPAAANGRTRAYSGSDLPSSSSGGANGTAGGGGGARAAAAGRFPAQVPSAHQPSASGGAAAAAAAPAAPAAPRSRSLGGAVGSVASGARAAQSPFSIPNSSSGPYGSQDSVHSSPEDGGGGRDRPVGGSPGGPRLVIGSLPAHLSPHMFGGFKCPVCSKFVSSDEMDLHLVMCLTKPRITYNEDVLSKDAGECAICLEELQQGDTIARLPCLCIYHKGCIDEWFEVNRSCPEHPSD [ZNRF2]”, the melting temperature runs as follows: (cell cycle stage: G1/S) 52.7 °C; (cell cycle stage: mitosis) 55.1 °C.

As for “MGEFKVHRVRFFNYVPSGIRCVAYNNQSNRLAVSRTDGTVEIYNLSANYFQEKFFPGHESRATEALCWAEGQRLFSAGLNGEIMEYDLQALNIKYAMDAFGGPIWSMAASPSGSQLLVGCEDGSVKLFQITPDKIQFERNFDRQKSRILSLSWHPSGTHIAAGSIDYISVFDVKSGSAVHKMIVDRQYMGVSKRKCIVWGVAFLSDGTIISVDSAGKVQFWDSATGTLVKSHLIANADVQSIAVADQEDSFVVGTAEGTVFHFQLVPVTSNSSEKQWVRTKPFQHHTHDVRTVAHSPTALISGGTDTHLVFRPLMEKVEVKNYDAALRKITFPHRCLISCSKKRQLLLFQFAHHLELWRLGSTVATGKNGDTLPLSKNADHLLHLKTKGPENIICSCISPCGSWIAYSTVSRFFLYRLNYEHDNISLKRVSKMPAFLRSALQILFSEDSTKLFVASNQGALHIVQLSGGSFKHLHAFQPQSGTVEAMCLLAVSPDGNWLAASGTSAGVHVYNVKQLKLHCTVPAYNFPVTAMAIAPNTNNLVIAHSDQQVFEYSIPDKQYTDWSRTVQKQGFHHLWLQRDTPITHISFHPKRPMHILLHDAYMFCIIDKSLPLPNDKTLLYNPFPPTNESDVIRRRTAHAFKISKIYKPLLFMDLLDERTLVAVERPLDDIIAQLPPPIKKKKFGT [UTP4]”, the melting temperature by setting is: (cell cycle stage: G1/S) 54.3 °C; (cell cycle stage: mitosis) 52.3 °C.

Substance “MGLLDRLSVLLGLKKKEVHVLCLGLDNSGKTTIINKLKPSNAQSQNILPTIGFSIEKFKSSSLSFTVFDMSGQGRYRNLWEHYYKEGQAIIFVIDSSDRLRMVVAKEELDTLLNHPDIKHRRIPILFFANKMDLRDAVTSVKVSQLLCLENIKDKPWHICASDAIKGEGLQEGVDWLQDQIQTVKT [ARL6]” yielded a melting temperature (cell cycle stage: mitosis) of 50.3 °C.
